This note sets out measurements from paper PMC6508501, “Conserved redox‐dependent DNA binding of ROXY glutaredoxins with TGA transcription factors”.

For data set [1], the target named is mTRQ2-MpTGA (Marchantia polymorpha). The data set is described as follows: FRET or BRET; FRET-FLIM; 2in1 vector, donor mTRQ2 on MpTGA, acceptor mVENUS on MpROXY; 40 nuclei of N. benthamiana leaves; mono- or biexponential decay of the donor. For orientation: In BRET a luciferase serves as donor, and the signal depends on an acceptor being close.
In data set [2] the target is T1, PAN (…) (Arabidopsis thaliana, UniProt Q9SX27 1-452).
T1 sequence: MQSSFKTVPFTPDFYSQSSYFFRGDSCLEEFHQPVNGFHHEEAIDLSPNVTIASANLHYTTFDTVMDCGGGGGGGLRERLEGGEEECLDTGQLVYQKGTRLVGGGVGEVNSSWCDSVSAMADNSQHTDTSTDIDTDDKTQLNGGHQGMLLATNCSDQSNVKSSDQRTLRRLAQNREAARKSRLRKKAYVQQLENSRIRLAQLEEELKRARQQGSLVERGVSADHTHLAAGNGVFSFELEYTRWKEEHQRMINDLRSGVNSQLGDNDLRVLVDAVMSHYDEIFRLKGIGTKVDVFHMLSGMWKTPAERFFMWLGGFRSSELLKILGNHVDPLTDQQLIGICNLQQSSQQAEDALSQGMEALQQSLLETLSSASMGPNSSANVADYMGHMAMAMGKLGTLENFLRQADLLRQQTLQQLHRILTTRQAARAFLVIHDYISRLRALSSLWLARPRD
The data set can be described thus: EMSA; Redox EMSA per Gutsche & Zachgo 2016 (buffer, salt, pH, temperature not stated); 0.9 mM DTT (red) or 2 mM diamide (ox); 500 ng recombinant protein per reaction; native gel. Conditions: tags: N-terminal MBP (per Methods), chain copies: 2, label: 5' 6-FAM, blunt. In general terms: In EMSA bound probe runs differently from free probe, usually more slowly.

The target in data set [3] is T2, MpROXY2 (Marchantia polymorpha (ssp. ruderalis, …, UniProt A0A2R6WT88 1-179)).
T2 sequence: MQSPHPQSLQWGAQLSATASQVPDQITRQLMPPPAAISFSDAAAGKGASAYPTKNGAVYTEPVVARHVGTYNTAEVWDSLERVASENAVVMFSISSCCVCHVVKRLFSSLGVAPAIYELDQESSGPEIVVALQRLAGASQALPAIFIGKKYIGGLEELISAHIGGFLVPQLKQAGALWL
The data set is described as follows: EMSA; 0.9 mM DTT or 2 mM diamide; Redox EMSA per Gutsche & Zachgo 2016 (buffer, salt, pH, temperature not stated); 0.9 mM DTT (red) or 2 mM diamide (ox); 500 ng recombinant protein per reaction; native gel. Conditions: tags: N-terminal MBP, label: 5' 6-FAM, blunt.

The target of data set [4] is T3, PAN (…);ROXY1 (Arabidopsis thaliana;Arabidopsis …, UniProt Q9SX27;Q96305 1-452;1-136, |).
T3 sequence 1: T1 sequence
T3 sequence 2: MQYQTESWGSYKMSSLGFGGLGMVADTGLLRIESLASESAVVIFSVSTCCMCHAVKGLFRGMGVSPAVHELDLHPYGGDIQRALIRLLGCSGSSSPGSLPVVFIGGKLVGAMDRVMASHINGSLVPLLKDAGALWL
The data set is described as follows: EMSA supershift; Redox EMSA per Gutsche & Zachgo 2016 (buffer, salt, pH, temperature not stated); 0.9 mM DTT (red) or 2 mM diamide (ox); 500 ng recombinant protein per reaction; native gel. The note with it: tags: N-terminal MBP (per Methods);MBP, label: 5' 6-FAM, blunt.

For data set [5], the target named is T4, PAN (…);MpROXY2 (Arabidopsis thaliana;Marchantia …, UniProt Q9SX27;A0A2R6WT88 1-452;1-179, |).
T4 sequence 1: T1 sequence
T4 sequence 2: T2 sequence
Described as above. Conditions: tags: N-terminal MBP (per Methods);N-terminal MBP, label: 5' 6-FAM, blunt.

As to mVENUS-MpROXY2 (natural protein), in data set [1], the reduced donor fluorescence lifetime (τDA) is < 2 ns.
For the molecule mVENUS-MpROXY1 (natural protein), in data set [1], the reduced donor fluorescence lifetime (τDA) was < 2 ns.

B1: as-1-like (dsDNA)
DNA 1: CTACGTCACTATTTTACTTACGTCATAG
DNA 2: CTATGACGTAAGTAAAATAGTGACGTAG
With B1, the binding result in data set [2] is listed as “binds”; in data set [3], “no binding”; in data set [4], “binds”; in data set [5], “binds”.
